How the values were obtained:
[1] = tested on: GFP-tag (EGFP with the tmRNA peptide tag AANDENYALAA at the C terminus) [GFP: P42212]
[2] = tested on: IXP1, cyclic SGWYGRRH peptide

Substance	KM of GFP-tag degradation (ClpXP with SspB) [1]	KM of GFP-tag degradation (ClpXP with SspB, no cyclic peptide) [1]	kcat of GFP-tag degradation (ClpXP with SspB) [1]	kcat of GFP-tag degradation (ClpXP with SspB, no cyclic peptide) [1]	rate of GFP-tag proteolysis [2]	rate of ClpX ATP hydrolysis [2]	rate of ClpX ATP hydrolysis with GFP-tag included [2]
ClpXP protease (E. coli ClpX6 with ClpP14)	KM=0.74±0.04	KM=0.74±0.04 µM	kcat=1.79±0.08 min-1	kcat=1.79±0.08 min^-1	Inclusion of purified IXP1 reduced the rate of GFP-tag proteolysis		
ClpX (E. coli), N-terminally His6-tagged						The rate of ClpX ATP hydrolysis was not inhibited by IXP1 at concentrations up to 200 µM	IXP1 still had no effect on ClpX activity

— patent publication US20090143241
